T1: Flag-TNFR1 (UniProt P19438 30-455, limits assumed)
T1 construct: whole, on cells; The receptor sat on the membrane of transfected HEK293 cells; not shown: Flag tag
T1 sequence (looked up): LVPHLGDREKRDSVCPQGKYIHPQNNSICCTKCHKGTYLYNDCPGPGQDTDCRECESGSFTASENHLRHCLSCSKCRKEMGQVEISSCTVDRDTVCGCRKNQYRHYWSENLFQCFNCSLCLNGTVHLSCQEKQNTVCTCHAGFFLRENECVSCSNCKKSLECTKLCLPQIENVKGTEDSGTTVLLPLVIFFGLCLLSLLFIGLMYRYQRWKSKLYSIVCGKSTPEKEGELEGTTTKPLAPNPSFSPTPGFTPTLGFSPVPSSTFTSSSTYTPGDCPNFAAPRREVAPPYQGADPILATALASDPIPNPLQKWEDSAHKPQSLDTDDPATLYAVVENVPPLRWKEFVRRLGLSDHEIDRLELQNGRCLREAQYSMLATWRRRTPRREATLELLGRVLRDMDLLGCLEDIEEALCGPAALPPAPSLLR


Target: T1, Flag-TNFR1
Experiment: co-immunoprecipitation of truncated mutants co-transfected with TNFR1
Procedure: The cells were washed with RIPA buffer, and protein-A/G-agarose beads (Santa Cruz) were added in an amount of 20 μL/tube to perform immunoprecipitation. According to the molecular weights of the truncated mutants, […] 15% SDS-PAGE gel electrophoresis was carried out, followed by Western blotting with an Myc antibody (FIG. 9).

Binder	binding result
truncated mutant consisting of an IGFBP5 C-terminal domain (other, not shown: Myc tag from vector pSecTaq2/Hygro A) QGPCRRHMEASLQELKASPRMVPRAVYLPNCDRKGFYKRKQCKPSRGRKRGICWCVDKYGMKLPGMEYVDGDFQCHTFDSSNVE	no binding
truncated mutant consisting of an IGFBP5 N-terminal domain (other, not shown: Myc tag from vector pSecTaq2/Hygro A) LGSFVHCEPCDEKALSMCPPSPLGCELVKEPGCGCCMTCALAEGQSCGVYTERCAQGLRCLPRQDEEKPLHALLHGRGVC	no binding
